The results in this text go back to publication PMC4872093, “Structural insights into DNA sequence recognition by Type ISP restriction-modification enzymes”.

The target of data set [1] is LlaGI full-length (crystal) (UniProt Q93R01 1-1570, D78A). The experiment in a line: X-ray crystallography, 7.4 A; EMSA: 50 mM Tris-HCl pH 7.4, 100 mM NaCl, 10 mM MgCl2, 0.01 mg/ml BSA, 1 mM DTT, 10% glycerol, 4 C. Crystals at 291 K: LlaGIΔN 100 mM Tris-HCl pH 7.4, 20% PEG 20000, 4% PEG 550 MME, 150-250 mM Na acetate; LlaGI 100 mM MES pH 5.6, 300 mM KCl, 6.5% PEG 20000. The settings on record: protein: recombinant; blunt.

Data set [2] deals with T1, LlaGIΔN (UniProt Q93R01 1-1+166-1570, internal_change).
T1 sequence: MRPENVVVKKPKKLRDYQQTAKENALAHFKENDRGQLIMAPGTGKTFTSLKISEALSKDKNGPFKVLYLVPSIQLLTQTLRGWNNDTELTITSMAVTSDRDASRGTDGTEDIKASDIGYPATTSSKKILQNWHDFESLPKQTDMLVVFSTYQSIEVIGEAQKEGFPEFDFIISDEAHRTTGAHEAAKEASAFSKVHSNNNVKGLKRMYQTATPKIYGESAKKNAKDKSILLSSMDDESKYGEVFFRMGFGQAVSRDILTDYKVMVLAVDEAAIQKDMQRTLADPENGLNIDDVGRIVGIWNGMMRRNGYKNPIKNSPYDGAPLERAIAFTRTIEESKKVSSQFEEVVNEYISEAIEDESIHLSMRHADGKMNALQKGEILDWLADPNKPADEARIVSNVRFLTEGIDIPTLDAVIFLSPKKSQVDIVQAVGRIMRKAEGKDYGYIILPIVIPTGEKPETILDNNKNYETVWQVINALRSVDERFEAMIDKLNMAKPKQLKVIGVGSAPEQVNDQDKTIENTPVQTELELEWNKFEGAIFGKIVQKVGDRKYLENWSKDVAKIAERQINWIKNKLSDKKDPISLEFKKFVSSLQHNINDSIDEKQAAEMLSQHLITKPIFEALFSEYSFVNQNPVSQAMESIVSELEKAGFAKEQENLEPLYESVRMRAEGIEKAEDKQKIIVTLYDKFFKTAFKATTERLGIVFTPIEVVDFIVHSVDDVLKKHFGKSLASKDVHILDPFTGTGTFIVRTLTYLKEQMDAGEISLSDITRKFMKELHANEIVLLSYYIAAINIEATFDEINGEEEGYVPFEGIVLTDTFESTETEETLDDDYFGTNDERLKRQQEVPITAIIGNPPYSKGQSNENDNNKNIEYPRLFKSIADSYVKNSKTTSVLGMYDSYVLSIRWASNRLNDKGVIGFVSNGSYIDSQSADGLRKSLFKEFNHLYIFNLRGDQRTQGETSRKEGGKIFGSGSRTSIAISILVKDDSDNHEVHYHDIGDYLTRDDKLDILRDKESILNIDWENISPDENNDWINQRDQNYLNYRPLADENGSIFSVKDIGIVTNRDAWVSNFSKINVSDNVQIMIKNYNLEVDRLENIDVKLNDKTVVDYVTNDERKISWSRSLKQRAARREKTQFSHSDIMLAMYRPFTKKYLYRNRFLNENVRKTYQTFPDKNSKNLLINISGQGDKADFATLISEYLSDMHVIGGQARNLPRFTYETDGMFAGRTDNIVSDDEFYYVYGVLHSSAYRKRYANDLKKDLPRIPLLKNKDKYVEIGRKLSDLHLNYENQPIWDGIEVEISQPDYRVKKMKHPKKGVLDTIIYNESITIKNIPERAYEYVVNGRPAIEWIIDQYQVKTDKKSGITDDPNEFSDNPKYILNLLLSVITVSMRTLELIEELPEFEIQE
Nature of the data set: X-ray crystallography, 2.84 A; no AdoMet; target adenine flipped; EMSA: 50 mM Tris-HCl pH 7.4, 100 mM NaCl, 10 mM MgCl2, 0.01 mg/ml BSA, 1 mM DTT, 10% glycerol, 4 C. Crystals at 291 K: LlaGIΔN 100 mM Tris-HCl pH 7.4, 20% PEG 20000, 4% PEG 550 MME, 150-250 mM Na acetate; LlaGI 100 mM MES pH 5.6, 300 mM KCl, 6.5% PEG 20000. The following applies: protein: recombinant; 5' overhang 1 nt (T) on both strands, 22 bp paired. For orientation: In EMSA bound probe runs differently from free probe, usually more slowly.

B1: LlaGI co-crystal duplex (28 bp) (dsDNA)
DNA 1: GCTCTAGCTAATAGACTGGATGGAGGTG
DNA 2: CACCTCCATCCAGTCTATTAGCTAGAGC
In the case of B1, the binding result in data set [1] is recorded as “binds”.

B2: LlaGIΔN co-crystal duplex (22 bp) (dsDNA)
DNA 1: TTAGCTAATAGACTGGATGGAGG
DNA 2: TCCTCCATCCAGTCTATTAGCTA
Take B2: the binding result in data set [2] is listed as “binds”.
